# Assay results: US20230243822A1, “MOLECULAR DISEASE PROFILE AND USE THEREOF FOR MONITORING AND TREATING RHEUMATAOID ARTHRITIS” (JANSSEN BIOTECH, INC., priority 2020, published 2023)
# B1: Sirukumab (antibody, chains of the INN, looked up, V domains shown)
# VH: EVQLVESGGGLVQPGGSLRLSCAASGFTFSPFAMSWVRQAPGKGLEWVAKISPGGSWTYYSDTVTGRFTISRDNAKNSLYLQMNSLRAEDTAVYYCARQLWGYYALDIWGQGTTVTVSS
# VL: EIVLTQSPATLSLSPGERATLSCSASISVSYMYWYQQKPGQAPRLLIYDMSNLASGIPARFSGSGSGTDFTLTISSLEPEDFAVYYCMQWSGYPYTFGGGTKVEIK
# notes: a human anti-interleukin-6 (IL-6) monoclonal antibody
# Tested on: 14-analyte M-DP panel
# Assay: Pharmacodynamic M-DP score, 14-analyte panel (SomaLogic SOMAscan), clinical studies in RA
# Type: in vivo, human
# Settings: for M-DP score mean difference ± SD, Good vs. No / M-DP score mean ± SD, DAS28-CRP response group Good / M-DP score mean ± SD, DAS28-CRP response group Moderate / M-DP score mean ± SD, DAS28-CRP response group No: response at week 24
# From the text: Serum samples and data from eight interventional clinical studies with seven different active treatments for RA or placebo treatment were obtained and analyzed: sirukumab (anti-IL-6) and placebo treatments in SIRROUND-M (NCT01689532; Takeuchi T, et al. Arthritis Res Ther. 2018 Mar. 7; 20(1): 42), SIRROUND-D (NCT01604343; Takeuchi T, et al. Ann Rheum Dis. 2017 Dec.; 76(12): 2001-2008), and SIRROUND-T (NCT01606761; Aletaha D, et al. Lancet. 2017 Mar. 25; 389(10075): 1206-1217); sirukumab and adalimumab (anti-TNF-alpha) treatments in SIRROUND-H (NCT02019472; Taylor PC, et al. Ann Rheum Dis. 2018 May; 77(5): 658-666); golimumab (anti-TNF-alpha) treatment in GO-FURTHER (NCT00973479; Weinblatt ME, et al. Ann Rheum Dis. 2013 March; 72(3): 381-9); guselkumab (anti-IL-23p19), ustekinumab (anti-IL-12/IL-23p40), and placebo treatments in CNTO1275ARA2001 (NCT01645280; Cox JD, et al. […]); JNJ-40346527 (colony-stimulating factor-1 inhibitor) and placebo treatments in 40346527ARA2001 (NCT01597739; Genovese MC, et al. J Rheumatol. 2015 October; 42(10): 1752-60). Plasma samples were obtained from the RA-MAP TACERA study (Cope AP, et al. Nat Rev Rheumatol. 2018 January; 14(1): 53-60) before (baseline) and 6-months after initiation of conventional synthetic disease-modifying anti-rheumatic drugs (csDMARDs). Details of treatment dose groups, concomitant methotrexate use, and previous experience with csDMARDs and biologics are reported in Table 1. The studies were conducted in accordance with the Declaration of Helsinki. The study protocols were reviewed and approved by an independent ethics committee or institutional review board for each study center. Written informed consent was obtained from all patients before study entry. Additional study details and patient characteristics are available in the referenced publications for each study. For SIRROUND-D and SIRROUND-T studies, sets of serum samples from demographically-matched healthy controls were obtained from commercial sources (BioIVT, Westbury, N.Y.).
# Serum samples from baseline (week 0) and the time points indicated in Table 1 were provided for quantification of 1189 serum analytes using the SomaScan v3.1 platform (SomaLogic, Boulder, Colo.; www.somalogic.com), with the exception of RA-MAP TACERA, for which plasma samples were analyzed for 1301 analytes using the SomaScan v3.2 platform. For some studies, a redacted dataset reporting data for a subset of the analytes was obtained. Relative fluorescence unit (RFU) data were sequentially normalized for hybridization controls (internal standards per samples), median signal across all samples (assumes same total protein concentration across sample set), and calibration controls (common sample standards across analysis plates). Samples failed quality control standards defined by Somalogic were excluded from analyses. The normalized RFU values were log2-transformed for subsequent analyses.
# Changes in analyte expression levels were calculated for individual samples as the log2 transform of the ratio of the analyte level at the indicated time point (visit level) over the analyte level at baseline (baseline level) for a given subject, i.e., log 2(visit level/baseline level). Changes in RA disease-associated analytes per sample were summarized using a pharmacodynamic (PD) molecular disease profile (M-DP) score, defined as the median value of the log 2(visit level/baseline level) values for analytes in the defined M-DP analyte set. […] PD M-DP scores in the log 2(visit level/baseline level) scale can be transformed to percent change from baseline, using the transformation: (2^M-DP score−1)×100%.
# Statistical analyses were performed on log2-transformed data, for either normalized Relative fluorescence unit (RFU) datasets or within-subject fold/baseline datasets. Significance of differences between groups was evaluated using General Linear Models, with t-tests when comparing two groups. […]
# [1] = SIRROUND-D, score at week 4, sirukumab SC 50 mg q4w
# [2] = SIRROUND-D, score at week 4, sirukumab SC 100 mg q2w
# [3] = SIRROUND-D, score at week 24, sirukumab SC 50 mg q4w
# [4] = SIRROUND-D, score at week 24, sirukumab SC 100 mg q2w
# [5] = SIRROUND-H, score at week 4, sirukumab SC 50 mg q4w or adalimumab SC 40 mg q2w
# [6] = SIRROUND-M, score at week 4, sirukumab SC 50 mg q4w
# [7] = SIRROUND-M, score at week 4, sirukumab SC 100 mg q2w
# [8] = SIRROUND-T, score at week 4, sirukumab SC 50 mg q4w
# [9] = SIRROUND-T, score at week 4, sirukumab SC 100 mg q2w
# [10] = SIRROUND-T, score at week 24, sirukumab SC 50 mg q4w
# [11] = SIRROUND-T, score at week 24, sirukumab SC 100 mg q2w
molecule,measurement,setting,value
B1,"M-DP score mean ± SD, All treated",[1],−0.42 ± 0.34 log2 (fold/baseline)
same,"M-DP score mean ± SD, All treated","SIRROUND-D, score at week 4, sirukumab SC 50 mg q4w, listed as sirukumab",-0.42±0.34 log2 (fold/baseline)
same,"M-DP score mean difference ± SD, Good vs. No",[1],−0.08 ± 0.33 log2 (fold/baseline)
same,"M-DP score mean ± SD, DAS28-CRP response group Good",[1],−0.44 ± 0.32 log2 (fold/baseline)
same,"M-DP score mean ± SD, DAS28-CRP response group Moderate",[1],−0.43 ± 0.36 log2 (fold/baseline)
same,"M-DP score mean ± SD, DAS28-CRP response group No",[1],−0.36 ± 0.35 [44]+ log2 (fold/baseline)
same,"M-DP score mean ± SD, All treated",[2],−0.48 ± 0.30 log2 (fold/baseline)
same,"M-DP score mean ± SD, All treated","SIRROUND-D, score at week 4, sirukumab SC 100 mg q2w, listed as sirukumab",-0.48±0.30 log2 (fold/baseline)
same,"M-DP score mean difference ± SD, Good vs. No",[2],−0.27 ± 0.30 log2 (fold/baseline)
same,"M-DP score mean ± SD, DAS28-CRP response group Good",[2],−0.50 ± 0.29 log2 (fold/baseline)
same,"M-DP score mean ± SD, DAS28-CRP response group Moderate",[2],−0.51 ± 0.30 log2 (fold/baseline)
same,"M-DP score mean ± SD, DAS28-CRP response group No",[2],−0.33 ± 0.32 [28]+ log2 (fold/baseline)
same,"M-DP score mean ± SD, All treated",[3],−0.61 ± 0.40 log2 (fold/baseline)
same,"M-DP score mean ± SD, DAS28-CRP response group Good",[3],−0.65 ± 0.39 log2 (fold/baseline)
same,"M-DP score mean ± SD, DAS28-CRP response group Moderate",[3],−0.59 ± 0.39 log2 (fold/baseline)
same,"M-DP score mean ± SD, DAS28-CRP response group No",[3],0.06 ± 0.00 [1] log2 (fold/baseline)
same,"M-DP score mean ± SD, All treated",[4],−0.69 ± 0.31 log2 (fold/baseline)
same,"M-DP score mean ± SD, DAS28-CRP response group Good",[4],−0.69 ± 0.34 log2 (fold/baseline)
same,"M-DP score mean ± SD, DAS28-CRP response group Moderate",[4],−0.75 ± 0.20 log2 (fold/baseline)
same,"M-DP score mean ± SD, DAS28-CRP response group No",[4],−0.52 ± 0.37 [2] log2 (fold/baseline)
same,M-DP score GMean decrease from baseline,"SIRROUND-D, week 4, sirukumab 50 mg q4w",21%
same,M-DP score GMean decrease from baseline,"SIRROUND-D, week 4, sirukumab 100 mg q2w",25%
same,"M-DP score mean ± SD, All treated",[5],−0.41 ± 0.30 log2 (fold/baseline)
same,"M-DP score mean difference ± SD, Good vs. No",[5],−0.07 ± 0.30 log2 (fold/baseline)
same,"M-DP score mean ± SD, DAS28-CRP response group Good",[5],−0.45 ± 0.33 log2 (fold/baseline)
same,"M-DP score mean ± SD, DAS28-CRP response group Moderate",[5],−0.40 ± 0.30 log2 (fold/baseline)
same,"M-DP score mean ± SD, DAS28-CRP response group No",[5],−0.38 ± 0.22 [12]+ log2 (fold/baseline)
same,"M-DP score mean ± SD, All treated",[6],−0.51 ± 0.37 log2 (fold/baseline)
same,"M-DP score mean difference ± SD, Good vs. No",[6],−0.40 ± 0.37 log2 (fold/baseline)
same,"M-DP score mean ± SD, DAS28-CRP response group Good",[6],−0.59 ± 0.38 log2 (fold/baseline)
same,"M-DP score mean ± SD, DAS28-CRP response group Moderate",[6],−0.46 ± 0.30 log2 (fold/baseline)
same,"M-DP score mean ± SD, DAS28-CRP response group No",[6],−0.19 ± 0.25 [7] log2 (fold/baseline)
same,"M-DP score mean ± SD, All treated",[7],−0.59 ± 0.29 log2 (fold/baseline)
same,"M-DP score mean ± SD, DAS28-CRP response group Good",[7],−0.55 ± 0.27 log2 (fold/baseline)
same,"M-DP score mean ± SD, DAS28-CRP response group Moderate",[7],−0.70 ± 0.34 log2 (fold/baseline)
same,"M-DP score mean ± SD, DAS28-CRP response group No",[7],−0.51 ± 0.10 [2] log2 (fold/baseline)
same,"M-DP score mean ± SD, All treated",[8],−0.34 ± 0.28 log2 (fold/baseline)
same,"M-DP score mean difference ± SD, Good vs. No",[8],−0.06 ± 0.29 log2 (fold/baseline)
same,"M-DP score mean ± SD, DAS28-CRP response group Good",[8],−0.35 ± 0.30 log2 (fold/baseline)
same,"M-DP score mean ± SD, DAS28-CRP response group Moderate",[8],−0.37 ± 0.26 log2 (fold/baseline)
same,"M-DP score mean ± SD, DAS28-CRP response group No",[8],−0.29 ± 0.26 [30]+ log2 (fold/baseline)
same,"M-DP score mean ± SD, All treated",[9],−0.49 ± 0.35 log2 (fold/baseline)
same,"M-DP score mean difference ± SD, Good vs. No",[9],−0.20 ± 0.34 log2 (fold/baseline)
same,"M-DP score mean ± SD, DAS28-CRP response group Good",[9],−0.55 ± 0.35 log2 (fold/baseline)
same,"M-DP score mean ± SD, DAS28-CRP response group Moderate",[9],−0.54 ± 0.35 log2 (fold/baseline)
same,"M-DP score mean ± SD, DAS28-CRP response group No",[9],−0.35 ± 0.33 [39]+ log2 (fold/baseline)
same,"M-DP score mean ± SD, All treated",[10],−0.41 ± 0.33 log2 (fold/baseline)
same,"M-DP score mean difference ± SD, Good vs. No",[10],−0.12 ± 0.34 log2 (fold/baseline)
same,"M-DP score mean ± SD, DAS28-CRP response group Good",[10],−0.46 ± 0.35 log2 (fold/baseline)
same,"M-DP score mean ± SD, DAS28-CRP response group Moderate",[10],−0.41 ± 0.29 log2 (fold/baseline)
same,"M-DP score mean ± SD, DAS28-CRP response group No",[10],−0.34 ± 0.31 [31]+ log2 (fold/baseline)
same,"M-DP score mean ± SD, All treated",[11],−0.53 ± 0.36 log2 (fold/baseline)
same,"M-DP score mean difference ± SD, Good vs. No",[11],−0.18 ± 0.35 log2 (fold/baseline)
same,"M-DP score mean ± SD, DAS28-CRP response group Good",[11],−0.59 ± 0.38 log2 (fold/baseline)
same,"M-DP score mean ± SD, DAS28-CRP response group Moderate",[11],−0.54 ± 0.37 log2 (fold/baseline)
same,"M-DP score mean ± SD, DAS28-CRP response group No",[11],−0.41 ± 0.28 [40]+ log2 (fold/baseline)
same,M-DP score GMean decrease from baseline,"SIRROUND-T, week 4, sirukumab 50 mg q4w",22%
same,M-DP score GMean decrease from baseline,"SIRROUND-T, week 4, sirukumab 100 mg q2w",29%
